Measured values: the supplement of paper PMC12636428

system: Saccharomyces cerevisiae; assay: transcriptional activation domain activity (GFP:mCherry ratio, weighted mean of sorted bins, harmonized to initial dataset scale) (arbitrary fluorescence ratio units); higher = stronger transcriptional activation; settings: beta-estradiol 1 µM; induction time 4 h
Summary of the method: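 After a 1:5 dilution into SC with 1 uM beta-estradiol and 4 hours at 30 °C, yeast diploids carrying a GFP reporter and URA3-integrated barcoded tiles were sorted into 8 bins by GFP:mCherry ratio. The tiles were fused to an estradiol-inducible synthetic transcription factor. Barcodes were sequenced, tiles below 50 reads were discarded, and activation activity was taken as the read-weighted mean of bin median fluorescence, averaged across barcodes and linearly mapped onto the initial dataset scale.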

| Sequence | transcriptional activation domain activity |
| --- | --- |
| DSEEERMRRRRAKSRDPERERERKASRSPEKKPARSKSRLGRLAAGAAAAGAA | 50300 |
| IFLFHINHAVFKSVVWWIGVFFFVYVLITIMPILRYDSPYYSPLSASVWFLYT | 45800 |
| GAGGAAGGAGAGAGTAATGGNAAGGKASATKPAAGAKSSPAAAAAAAGTRLTG | 7150 |
| WRYGKCQVCGYVMINYPGPNQRHHCLEGRVRTVYNTVTFPCYLEVHVVQMIWL | 60800 |
| VCGAHCGYILGHINIFQPINWVLVQSSKVFPIDYVLFLLLVLFFFSASVVGLA | 21400 |
| QLLLVHEGCVMDRLAIAGFEGAALARALWFASFLKGVVRQDRIMEGMYYLLAP | 26300 |
| SAEFRANEFARHPLLDALLLSLMVDGSSTLLEIEVATLVCLLRQFAIHAPDTL | 51800 |
| EAEEEESEKKDKKRKKDKEGKKKKKSKSSEEKETEEEKVEEKKSEESSESKKD | < 6570 |
| LRALCFEAIRNKGQSVMIARLLQRYMGQLTWLRGGNGVSLLVMVVRDVLLEMQ | 58900 |
| EDGGEDGETGGKILTKAEKEKQKKEREKQRKKEQATPAKAAAEEKKVEAAPAA | 32100 |
| DETNIHFDSMWCNDEYMKLKDIVDISTPFLPNNSQIFSLQESEYPNPSASTRG | 136000 |
| LHRLHLARVTVDKEGKLVSTTNMTILNLWLVWRGPMREDRLTIEITLFQAFVG | 26400 |
| PGEVSEAEANGDAPKADDAAAPESGEAAKPKKKKKKAAKKPKKEGEEGAAAAP | 37700 |
| MCLSFFVFLLYIYQITFSYLLSIMSQLELCRDCFFGPLALLLVIVILSSLCMY | 69700 |
| MALPVIFLFFLHVNILLLCRRFLLVFFLLLVFFLLLVFFFLLLVFFLLLVFLL | 66200 |
| MKIVWFSGPKVCTLFIFLLFCFLLSCCSAFLVSFFCWFLSCWLFLLAFGLLFF | 49400 |
| FFELLGLFVFFVLFLVGAAIASTFWGDLFWCHSFWQCRVLTVLVAFAWMCWVL | 46900 |
| RGTIRPGFLIYFFILFLWVFQIHCIMQIIVNRIALLHVSPTIVRRLKWGIFAI | 71800 |
| MNPPIHSLSFLQSYICFMLIPPLPLMFIIVFHPLYFFWLFLSFLLLDYYLSLL | 37800 |
| MCISRYWICLGKGSVLGYHSFIICFYLGLVEMMGYPLFAFFSLLFIRFLLFLS | 43700 |
| NWYWLATTMYFLYGESVVYYLKHIVLVDKVLLPLATHHRFISFILYVFGFVFF | 46100 |

| Sequence | transcriptional activation domain activity |
| --- | --- |
| VREEPTAFFFVVFGLVYETLVTSVPDSDAAAHRTSIVALKALKCLVQEKYCGK | 46200 |
| SQVAVSPGAVIEVNEEDAGEEQEQQQPARKRQRHRSKRQKLDAEQSAGQGGVV | 31700 |
| VRYHVKNSPISGWVYEAKHVSDILATNTLLARIVIAKVQDEQRLVHLLQCLPI | 68800 |
| PKADGDAEPKPKAPRGTKRKAAEETNGAEEGGEAPAAKKAKPASKAKPASKAA | 16400 |
| MVVVSCLSGAFLFFLFVHVVSGALFTYYSLLSLIFSLYHSILFVCWADLFFFF | 57100 |
| VEAPAEEQAEAPKTKRGRKAAEPAPVEPKEAEAPEPAAKPKRGRKAVSEEPME | 42100 |
| MAMTPVRGEGNDGYRTSDGEMESGGTRAQGKVIQRSRWVASSHIVAPAEVEKP | 27500 |
| TEEVVEPAAEKPAKKSRKRKSDVAEAVAEEKPETPVKPKKAKKEVAKAEEVVA | 20400 |
| SICRLGVGLSITGYRLGSMVLLRHDLRLIVTVFSMHLKYFVSFARPSMKILLR | 67300 |
| QSQAPARKKGAGGKEGKKGKGGKEGKEKVEKESKKKRKAEAEVVVGDEAAAAA | 33800 |
| EAKTDAETAVETQPEPKEEVATEETTKSAAKPAGAKKGGKKRAQPEKPADEAA | 12500 |
| DYSIAQFRFLLKLLLVHGRWNYMRACKYTLGTFWKEMLFYLTQALYQRWNGYT | 64700 |
| WDLLLGIQMSWDAVLDLWPRLWAWFEFLDTYSDILSSLLVYLSDADFSLIWVL | 62800 |
| LFCALMPIRFYTYFKQSFQYYLADLCYYVNLLLLIFLWVLPTSCSLFISVFSL | 78400 |
| WLLCQVPTRNLGVLVFDSSKRYHLVHPDSPTGEQRHTQFVIVLFIVAFIRGVA | 47700 |
| CCLLRTLGRFLLFIIFSPSLSTSSFQTLPLTLPFYLLSIFTKKPLYPIPFLCI | 44800 |
| MNLVSLAAVCLFYFFSPTLFFVPSLCSHGHLFTYGHFLLLLCSLILPWTCFRL | 72000 |
| DSLSNSNDVLNNTPNSSTSMDWLDNVIYTNRFVSGDDGSNSKTKNLDSNMFSN | 66900 |
| PFRIGRIVAWISYGIHQVGQWGILAKVQRAKEEWSNTYRWWNWSMVYLNGFML | 59700 |
| AILLFIELASMGGFTWHLLSGLFFGDVCLIYMDLDDTLFFLFVLVALFSQSFV | 46700 |
